± gives the uncertainty stated by the source.
Assay: protein stability index of a GFP-peptide fusion (yeast GPS) (PSI 1-4); higher = more stable; sorted into four equal gates, so the index is relative within each strain
In short: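 Plasmids isolated from each sorting gate were PCR-amplified and Illumina-sequenced, and barcodes assigned the reads to strains. The gates, four of equal size, were set by GFP/Cherry fluorescence ratio on mid-log cultures in leucine-free medium. These cultures were yeast carrying a pooled library of tiled 17-residue yeast protein peptides fused downstream of GFP on a plasmid that also expresses Cherry. The protein stability index is the sum of every gate's read frequency times its gate number.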

Sequence	protein stability index (doa10∆)	protein stability index (pdr5∆)	protein stability index (san1∆)	protein stability index (ubr1∆)
CRLFFTELASKDNAIYN [YCS4]	1.3 ± 0.077	1.51 ± 0.055	1.1 ± 0.16	1.32 ± 0.047
CYEKVLESINEGNQIIV [BRR2]	3.09 ± 0.11	2.59 ± 0.11	2.05 ± 0.093	2.34 ± 0.1
DAAAEKRNGDEVYTLVD [ARP7]	3.28 ± 0.074	3.35 ± 0.063	3.42 ± 0.046	3.06 ± 0.056
DAFNMLSLTTVPCDRIE [SNF6]	2.18 ± 0.05	2.57 ± 0.064	2.43 ± 0.091	2.4 ± 0.069
DAFRVHICGICGLMTVI [RPB2]	1.33 ± 0.084	1.43 ± 0.095	1.34 ± 0.16	1.43 ± 0.062
DAGKLVYVTGGRNLGRI [RPS4A]	2.76 ± 0.1	1.99 ± 0.12	3.08 ± 0.17	1.89 ± 0.28
DAIWSLVFQLAKNFSAQ [SRB8]	2.08 ± 0.049	2.56 ± 0.053	2.4 ± 0.054	2.61 ± 0.041
DANPSSQIIARNEEILR [SMC2]	2.94 ± 0.08	2.79 ± 0.083	3.21 ± 0.076	2.76 ± 0.11
DDALHAKKLPNGNWEVG [DIS3]	3.3 ± 0.098	3.12 ± 0.083	2.94 ± 0.057	3.05 ± 0.057
DDDDEDDDEIVMPVPNV [SKP1]	3.3 ± 0.064	3.06 ± 0.099	3.08 ± 0.11	3.21 ± 0.11
DDDEVDYSEIQRSRRKF [DSN1]	2.66 ± 0.1	3.66 ± 0.23	3.04 ± 0.2	2.75 ± 0.16
DDEDDEHNPTIVGGLYY [AAR2]	3.22 ± 0.12	3.14 ± 0.079	3.17 ± 0.064	3.4 ± 0.1
DDEDEDDSDNVMSSDDE [PRE10]	3.17 ± 0.094	3.46 ± 0.12	3.44 ± 0.15	3.12 ± 0.17
DDENNPSHYPHPYEYEI [RRP6]	3.03 ± 0.064	2.89 ± 0.063	2.74 ± 0.054	2.89 ± 0.029
DDFFKELAKEAKKSTTI [ESC2]	3.17 ± 0.12	3.09 ± 0.12	2.97 ± 0.094	3.36 ± 0.091
DDGDDEDLLECLDRCKE [MTR3]	2.57 ± 0.097	3.08 ± 0.084	2.87 ± 0.085	2.77 ± 0.11
DDLEKTLDKKDSIPLRI [RPN9]	–	2.3 ± 0.14	2.94 ± 0.11	2.33 ± 0.11
DDMVEYEDGTPATTSQM [CYT1]	–	2.76 ± 0.14	3.02 ± 0.19	–
DDNETENPNFWRQFGNR [GRR1]	3.17 ± 0.076	3.23 ± 0.056	3.31 ± 0.06	3.21 ± 0.056
DDTKNQDSMSKGTGEES [YGR119C/NUP57]	3.16 ± 0.077	3.14 ± 0.16	3.21 ± 0.082	3.42 ± 0.057
DDVKNILNAKYTKETYQ [RPN6]	3.26 ± 0.076	2.99 ± 0.066	3.08 ± 0.052	3.12 ± 0.064
DDVYRPAAESKIFTPNL [SNF5]	2.82 ± 0.085	3.09 ± 0.11	–	3.23 ± 0.19
DEAKDFIVSGTASDQLF [PUP3]	2.74 ± 0.089	2.83 ± 0.07	2.57 ± 0.096	2.92 ± 0.076
DEDDDQPMISPDNSIFG [SWI3]	3.22 ± 0.078	3.35 ± 0.083	3.2 ± 0.086	2.94 ± 0.088
DEDEDEDEDDDDDDDED [QCR6]	2.25 ± 0.039	1.96 ± 0.036	2.05 ± 0.047	1.98 ± 0.05
DEEMAVLTRMDEDRSKK [SNF2]	3.17 ± 0.071	2.66 ± 0.083	2.42 ± 0.092	2.57 ± 0.072
DEKKDSDSSKPAFSFGT [YJL041W/NSP1]	2.75 ± 0.076	2.49 ± 0.068	3.07 ± 0.067	2.97 ± 0.042

— the supplement of paper PMC9732359
